5 molecules from patent US20220048993A1 (published 2022) can be followed below.

Changes are numbered by the printed parent chain.

For orientation: Kd means the concentration at which binding is half-saturated.

For assay [1], the target named is T1, human FcRH3 (BIACORE analyte) (human, UniProt Q96P31 18-573).
T1 chain: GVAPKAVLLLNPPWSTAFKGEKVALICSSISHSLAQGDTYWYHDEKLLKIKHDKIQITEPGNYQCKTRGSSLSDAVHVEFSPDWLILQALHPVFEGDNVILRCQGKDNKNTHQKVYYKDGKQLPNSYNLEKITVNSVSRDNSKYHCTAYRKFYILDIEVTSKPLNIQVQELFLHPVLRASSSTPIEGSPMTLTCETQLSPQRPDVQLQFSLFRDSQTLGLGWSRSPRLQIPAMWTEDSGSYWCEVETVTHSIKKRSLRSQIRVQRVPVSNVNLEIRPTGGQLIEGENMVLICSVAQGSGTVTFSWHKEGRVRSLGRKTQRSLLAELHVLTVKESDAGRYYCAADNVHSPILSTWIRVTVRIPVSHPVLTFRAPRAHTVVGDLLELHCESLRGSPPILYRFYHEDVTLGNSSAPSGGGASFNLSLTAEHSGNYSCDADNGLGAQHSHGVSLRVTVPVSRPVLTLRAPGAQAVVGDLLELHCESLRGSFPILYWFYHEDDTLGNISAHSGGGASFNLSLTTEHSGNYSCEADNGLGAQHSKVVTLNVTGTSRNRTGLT
Description: SPR (1:1 binding); 25 °C.

Assay [2] concerns the target T2, soluble human FcRH5 protein fragment (UniProt Q96RD9 16-851).
T2 chain: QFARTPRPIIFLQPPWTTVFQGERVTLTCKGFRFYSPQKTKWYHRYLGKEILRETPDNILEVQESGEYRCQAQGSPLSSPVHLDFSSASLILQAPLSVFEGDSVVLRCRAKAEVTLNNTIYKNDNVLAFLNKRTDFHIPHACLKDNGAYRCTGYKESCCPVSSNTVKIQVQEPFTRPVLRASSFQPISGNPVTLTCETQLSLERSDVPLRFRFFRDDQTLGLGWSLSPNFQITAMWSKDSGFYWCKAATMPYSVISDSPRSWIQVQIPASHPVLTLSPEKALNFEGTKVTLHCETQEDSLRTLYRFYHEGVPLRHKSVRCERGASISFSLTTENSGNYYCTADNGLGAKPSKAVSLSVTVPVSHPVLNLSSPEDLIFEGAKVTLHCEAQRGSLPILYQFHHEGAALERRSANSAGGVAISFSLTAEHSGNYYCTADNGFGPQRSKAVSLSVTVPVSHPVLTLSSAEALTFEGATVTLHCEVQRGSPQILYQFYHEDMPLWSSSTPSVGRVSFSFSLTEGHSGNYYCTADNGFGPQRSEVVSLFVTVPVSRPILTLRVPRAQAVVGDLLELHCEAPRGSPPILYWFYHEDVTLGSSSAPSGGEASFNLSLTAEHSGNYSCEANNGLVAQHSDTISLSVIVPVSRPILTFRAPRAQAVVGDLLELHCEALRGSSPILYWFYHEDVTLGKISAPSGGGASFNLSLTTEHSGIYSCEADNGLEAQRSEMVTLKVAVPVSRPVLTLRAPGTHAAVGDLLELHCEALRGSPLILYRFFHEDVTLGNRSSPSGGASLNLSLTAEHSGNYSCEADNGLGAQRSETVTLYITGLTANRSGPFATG
Description: SPR. On the technique in general: In SPR one partner is held on a chip, and binding of the other changes the refractive index at the surface.

In a further assay the target is 7D8.RbIgG. Description: SPR; 25 °C.
Assay [3] deals with T3, soluble cynomolgus FcRH5 protein fragment.
T3 chain: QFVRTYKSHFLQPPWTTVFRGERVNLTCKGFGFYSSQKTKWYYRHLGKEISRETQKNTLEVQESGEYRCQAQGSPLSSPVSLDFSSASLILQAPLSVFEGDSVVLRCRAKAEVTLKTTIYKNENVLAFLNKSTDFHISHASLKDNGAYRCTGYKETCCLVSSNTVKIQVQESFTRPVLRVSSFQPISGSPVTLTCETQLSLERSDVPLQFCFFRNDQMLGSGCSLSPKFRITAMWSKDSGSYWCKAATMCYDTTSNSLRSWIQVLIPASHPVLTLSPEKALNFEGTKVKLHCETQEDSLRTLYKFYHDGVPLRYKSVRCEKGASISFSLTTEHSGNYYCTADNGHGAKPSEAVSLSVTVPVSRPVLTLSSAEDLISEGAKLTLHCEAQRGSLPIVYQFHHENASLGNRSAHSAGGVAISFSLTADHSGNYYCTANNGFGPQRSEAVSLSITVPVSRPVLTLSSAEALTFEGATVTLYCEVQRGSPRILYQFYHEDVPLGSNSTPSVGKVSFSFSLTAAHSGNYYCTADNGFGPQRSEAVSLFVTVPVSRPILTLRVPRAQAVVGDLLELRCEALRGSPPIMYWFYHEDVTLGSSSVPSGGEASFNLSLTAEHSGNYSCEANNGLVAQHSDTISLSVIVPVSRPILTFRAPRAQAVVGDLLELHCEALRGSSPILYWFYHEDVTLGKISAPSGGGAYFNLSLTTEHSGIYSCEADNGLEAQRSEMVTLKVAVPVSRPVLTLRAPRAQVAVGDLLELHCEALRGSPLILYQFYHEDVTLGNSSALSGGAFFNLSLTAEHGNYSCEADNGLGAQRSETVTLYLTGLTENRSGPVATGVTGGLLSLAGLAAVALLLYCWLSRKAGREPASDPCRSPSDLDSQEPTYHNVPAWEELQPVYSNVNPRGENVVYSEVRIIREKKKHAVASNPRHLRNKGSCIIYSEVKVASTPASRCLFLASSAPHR
Description: SPR; 25 °C.

For assay [4], the target named is T2, soluble human FcRH5 protein fragment. Briefly: SPR; 25 °C.

B1: 1G7.v1.4/38E4.v1 TDB (bispecific antibody, V domains shown)
VH 1: EVQLVESGPGLVKPSETLSLTCTVSGFSLTRFGVHWVRQPPGKGLEWLGVIWRGGSTDYNAAFMSRLTISKDNSKNQVSLKLSSVTAADTAVYYCSNHYYGSSDYALDNWGQGTLVTVSS
VL 1: DIQMTQSPSSLSASVGDRVTITCKASQDVRNLVVWFQQKPGKAPKLLIYSGSYRYSGVPSRFSGSGSGTDFTLTISSLQPEDFATYYCQQHYSPPYTFGQGTKVEIK
VH 2: EVQLVQSGAEVKKPGASVKVSCKASGFTFTSYYIHWVRQAPGQGLEWIGWIYPENDNTKYNEKFKDRVTITADTSTSTAYLELSSLRSEDTAVYYCARDGYSRYYFDYWGQGTLVTVSS
VL 2: DIVMTQSPDSLAVSLGERATINCKSSQSLLNSRTRKNYLAWYQQKPGQSPKLLIYWTSTRKSGVPDRFSGSGSGTDFTLTISSLQAEDVAVYYCKQSFILRTFGQGTKVEIK
As for B1, binding in assay [1] was characterised by a dissociation constant (Kd) of 76.5 nM.

B2: hu1G7.v93/38E4.v1 TDB (bispecific antibody, V domains shown)
VH 1: B1 VH 1 with L29T, M64V, S103P
VL 1: B1 VL 1 with R30S
VH 2: B1 VH 2
VL 2: B1 VL 2
Consider B2, for which, in assay [2], binding was put at a Kd of 1.07 nM.

B3: Cyno FcRH5 (receptor)
chain: T3 chain
On to B3, for which the Kd in the assay with 7D8.RbIgG amounted to 1.89 nM.

B4: Human FcRH5 (receptor)
chain: T2 chain
For B4, the Kd with 7D8.RbIgG amounted to 0.403 nM. This Kd is about 4.7-fold lower than that of the molecule before.

B5: h7D8.L1H2 (antibody)
chain 1: EVQLVESGGGLVQPGGSLRLSCAVSGIDLSSYAMGWVRQAPGKGLEWIGTIGTGGTPYYASWAKGRFTISKDSSKNTVYLQMNSLRAEDTAVYFCARDMYTGSIYYDMWGQGTLVTVSS
chain 2: DAQLTQSPSSLSASVGDRVTITCQSSQSVFNNAQLSWYQQKPGKPPKLLIYDTSNLASGVPSRFSGSGSGTDFTLTISSLQPEDFATYYCLGAYTDDADNAFGQGTKVEIK
As for B5, the Kd in assay [3] came out at 4.97 nM; in assay [4], 1.26 nM.
